Patent publication US20240199755A1, “ANTAGONISTS AND AGONISTS OF THE TRANSFERRIN RECEPTOR-2 FOR USE IN THE TREATMENT OF DISEASES OF THE BONE” (Kymab Limited, priority 2018, published 2024)

Biological target: T1, Tfr2-ECD (Mus musculus, UniProt Q9JKX3)
T1 construct: full-length extracellular domain (ECD, aa 103-798) of murine Tfr2; His (N); MBP (N); c3 (protease site between MBP and ECD) (N); made in house; host or cells: Sf9 insect cells (baculovirus, pOCC211-Tfr2-ECD)
T1 sequence (Q9JKX3 103-798): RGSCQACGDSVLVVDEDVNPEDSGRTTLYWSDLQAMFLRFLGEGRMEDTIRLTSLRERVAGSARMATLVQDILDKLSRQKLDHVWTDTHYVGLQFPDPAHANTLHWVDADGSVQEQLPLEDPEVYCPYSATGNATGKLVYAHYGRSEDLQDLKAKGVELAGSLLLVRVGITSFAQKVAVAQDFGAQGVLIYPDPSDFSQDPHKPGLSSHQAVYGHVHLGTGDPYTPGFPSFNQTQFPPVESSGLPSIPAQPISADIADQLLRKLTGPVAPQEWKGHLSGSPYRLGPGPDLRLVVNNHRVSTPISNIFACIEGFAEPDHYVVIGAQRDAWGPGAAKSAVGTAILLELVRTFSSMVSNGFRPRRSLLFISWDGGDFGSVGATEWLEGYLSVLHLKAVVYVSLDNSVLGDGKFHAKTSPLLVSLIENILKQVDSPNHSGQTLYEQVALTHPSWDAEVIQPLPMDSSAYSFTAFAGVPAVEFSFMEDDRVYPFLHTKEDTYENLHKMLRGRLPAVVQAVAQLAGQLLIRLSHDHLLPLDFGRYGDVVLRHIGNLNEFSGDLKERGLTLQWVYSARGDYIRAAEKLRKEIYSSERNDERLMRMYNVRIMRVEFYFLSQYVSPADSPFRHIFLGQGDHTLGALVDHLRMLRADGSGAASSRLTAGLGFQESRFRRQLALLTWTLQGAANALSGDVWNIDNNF
Test: SPR binding of holo-Tf and BMP receptors to Tfr2-ECD immobilized on the sensor chip
Set-up: species or system murine
Details: 200 nM BMP receptors; binding level normalized to molecular weight
Procedure: For this purpose, Tfr2-ECD is immobilized on a Series S Sensor Chip C1 (GE Healthcare), by means of coupling the amino groups at 25° C. The carboxyl groups on the chip surface are activated for 7 minutes using a mixture of 196 mM 1-ethyl-3-(3-dimethylaminopropyl) carbodiimide-hydrochloride and 50 mM n-hydroxysuccinimide at a flow rate of 10 μl/min. Subsequently, 5 μg/ml Tfr2-ECD, diluted with sodium acetate buffer (pH 4.5), is injected at a flow rate of 5 μl/min up to a relative occupancy of 200 RU. Non-reacted groups are inactivated by injecting 1 M thanolamine-HCl (pH 8.5) for 7 minutes at a flow rate of 10 μl/min. In order to prepare a reference surface, the same procedure is carried out but without Tfr2-ECD being injected.
The binding assays are carried out at 37° C. at a flow rate of 30 μl/min. Each analyte is diluted by a running buffer (HBS-P, pH 7.4 together with 50 nM FeCl3). […] The values of the binding level are read out, relative to the baseline, 10 s before the end of the injection and are corrected with respect to the molar mass. […] The binding parameters are determined using the Biacore™ T100 evaluation software 2.03. […]
For binding analysis, an injection of analyte for 240 s or 300 s over a Tfr2-ECD surface was followed by 1000 s dissociation. The values of the binding levels were recorded from referenced signals 10 s before the end of injection relative to baseline response. […]

- Binding response of BMPRs to Tfr2-ECD compared with BMPs: weaker than BMPs
B1: BMPR-II: type II BMP receptor (R&D Systems) (protein, UniProt Q13873 27-1038, looked up)
Bone morphogenetic protein …: SQNQERLCAFKDPYQQDLGIGESRISHENGTILCSKGSTCYGLWEKSKGDINLVKQGCWSHIGDPQECHYEECVVTTTPPSIQNGTYRFCCCSTDLCNVNFTENFPPPDTTPLSPPHSFNRDETIIIALASVSVLAVLIVALCFGYRMLTGDRKQGLHSMNMMEAAASEPSLDLDNLKLLELIGRGRYGAVYKGSLDERPVAVKVFSFANRQNFINEKNIYRVPLMEHDNIARFIVGDERVTADGRMEYLLVMEYYPNGSLCKYLSLHTSDWVSSCRLAHSVTRGLAYLHTELPRGDHYKPAISHRDLNSRNVLVKNDGTCVISDFGLSMRLTGNRLVRPGEEDNAAISEVGTIRYMAPEVLEGAVNLRDCESALKQVDMYALGLIYWEIFMRCTDLFPGESVPEYQMAFQTEVGNHPTFEDMQVLVSREKQRPKFPEAWKENSLAVRSLKETIEDCWDQDAEARLTAQCAEERMAELMMIWERNKSVSPTVNPMSTAMQNERNLSHNRRVPKIGPYPDYSSSSYIEDSIHHTDSIVKNISSEHSMSSTPLTIGEKNRNSINYERQQAQARIPSPETSVTSLSTNTTTTNTTGLTPSTGMTTISEMPYPDETNLHTTNVAQSIGPTPVCLQLTEEDLETNKLDPKEVDKNLKESSDENLMEHSLKQFSGPDPLSSTSSSLLYPLIKLAVEATGQQDFTQTANGQACLIPDVLPTQIYPLPKQQNLPKRPTSLPLNTKNSTKEPRLKFGSKHKSNLKQVETGVAKMNTINAAEPHVVTVTMNGVAGRNHSVNSHAATTQYANGTVLSGQTTNIVTHRAQEMLQNQFIGEDTRLNINSSPDEHEPLLRREQQAGHDEGVLDRLVDRRERPLEGGRTNSNNNNSNPCSEQDVLAQGVPSTAADPGPSKPRRAQRPNSLDLSATNVLDGSSIQIGESTQDGKSGSGEKIKKRVKTPYSLKRWRPSTWVISTESLDCEVNNNGSNRAVHSKSSTAVYLAEGGTATTMVSKDIGMNCL
